Source: patent US20170022287A1 (Chugai, published 2017)

What was measured:
CRD1 [1] = target: T1, CRD1; experiment: ELISA, coated CD137-Fc protein 2 µg/mL, antibody 10 or 5 µg/mL, absorbance 620 nm; Non (uncoated well) 0.061
T1 construct: also called fragmented human CD137-Fc fusion protein CRD1
Method: (§1) Fragmented human CD137-Fc fusion proteins were diluted to 2 μg/mL in an aqueous sodium carbonate solution adjusted to pH9.6. Fifty μL of a diluted fragmented human CD137-Fc fusion protein was added individually to each well of a Nunc MaxiSorp flat-bottom 96 well plate (Nunc). This was allowed to stand at 4° C. overnight or longer, and then the plate was allowed to stand at room temperature for one hour so that the plate has the same temperature as the room temperature. The solution containing the fragmented human CD137-Fc fusion protein was removed by tilting, and each well was washed three times with 300 μL of Wash buffer (TBS containing 0.1% Tween20, TaKaRa). Next, 150 μL of blocking buffer (TBS containing 2% BSA) was added to each well, and this was allowed to stand for one hour or more. The blocking buffer was removed by tilting, and each well was washed three times with Wash Buffer in a similar manner to an earlier step. Then, 50 μL of an antibody solution prepared in advance by dilution with TBS to 10 μg/mL or 5 μg/mL was added to each well. This was subjected to a speed of 600 rpm or so for one hour at room temperature to bind the antibody to the immobilized antigen. […] 100 μL of a secondary antibody solution produced by 1000-fold dilution with TBS containing 0.1% Tween20 was added to each well. For the secondary antibody, ANTIBODY ALKALINE PHOSPHATASE CONJUGATE HUMAN IMMUNOGLOBULIN ABSORBED Goat Anti-Human Kappa Alkaline Phosphate from BIOSOURCE was used in the case of antibodies carrying a Kappa chain, and Human Lambda Light Chain Antibody; Goat anti-Human Lambda Light Chain Antibody Alkaline Phosphatase Conjugated from BETHYL LABORATORIES INC. was used in the case of antibodies carrying a Lambda chain. […] Color development was performed using the BluePhos Microwell kit from KPL. After the chromogenic reaction was stopped using the AP stop solution from KPL, the absorbance was measured at 620 nm on an absorptiometer.

CRD1-3 [2] = target: T2, CRD1-3; experiment: as above
T2 construct: also called fragmented human CD137-Fc fusion protein CRD1-3
T2 sequence (chain, as listed by the source limits assumed): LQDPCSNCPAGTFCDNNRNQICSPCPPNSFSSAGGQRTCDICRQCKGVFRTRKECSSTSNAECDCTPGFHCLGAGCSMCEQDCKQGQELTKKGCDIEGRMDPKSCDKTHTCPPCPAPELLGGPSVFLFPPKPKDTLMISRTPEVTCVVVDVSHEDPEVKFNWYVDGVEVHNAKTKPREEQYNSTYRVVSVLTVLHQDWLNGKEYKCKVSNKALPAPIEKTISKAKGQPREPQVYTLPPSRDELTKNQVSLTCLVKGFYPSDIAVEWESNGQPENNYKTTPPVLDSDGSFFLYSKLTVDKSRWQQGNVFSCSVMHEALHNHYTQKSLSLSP
Method: as §1

CRD1-2 [3] = target: T3, CRD1-2; experiment: as above
T3 construct: also called fragmented human CD137-Fc fusion protein CRD1-2
T3 sequence (chain, as listed by the source limits assumed): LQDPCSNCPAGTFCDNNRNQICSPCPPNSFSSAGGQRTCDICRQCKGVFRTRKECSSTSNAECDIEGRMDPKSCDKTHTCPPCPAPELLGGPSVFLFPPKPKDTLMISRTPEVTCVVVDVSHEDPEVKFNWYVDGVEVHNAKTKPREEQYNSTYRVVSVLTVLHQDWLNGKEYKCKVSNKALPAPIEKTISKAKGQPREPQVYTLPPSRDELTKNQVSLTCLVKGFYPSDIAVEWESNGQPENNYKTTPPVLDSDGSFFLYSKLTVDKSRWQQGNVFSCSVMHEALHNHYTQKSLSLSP
Method: as §1

CRD2-4 [4] = target: T4, CRD2-4; experiment: as above
T4 construct: also called fragmented human CD137-Fc fusion protein CRD2-4
T4 sequence (chain, as listed by the source limits assumed): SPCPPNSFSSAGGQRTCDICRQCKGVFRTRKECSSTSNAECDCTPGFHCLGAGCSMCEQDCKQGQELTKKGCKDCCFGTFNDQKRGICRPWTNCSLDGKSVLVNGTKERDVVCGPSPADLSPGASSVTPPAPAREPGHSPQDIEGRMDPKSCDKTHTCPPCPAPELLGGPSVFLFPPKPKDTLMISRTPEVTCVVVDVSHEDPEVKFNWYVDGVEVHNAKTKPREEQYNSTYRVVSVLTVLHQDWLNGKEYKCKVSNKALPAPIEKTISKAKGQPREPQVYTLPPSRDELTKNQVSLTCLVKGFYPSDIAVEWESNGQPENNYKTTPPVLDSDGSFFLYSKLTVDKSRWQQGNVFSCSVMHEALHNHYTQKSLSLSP
Method: as §1

CRD2-3 [5] = target: T5, CRD2-3; experiment: as above
T5 construct: also called fragmented human CD137-Fc fusion protein CRD2-3
T5 sequence (chain, as listed by the source limits assumed): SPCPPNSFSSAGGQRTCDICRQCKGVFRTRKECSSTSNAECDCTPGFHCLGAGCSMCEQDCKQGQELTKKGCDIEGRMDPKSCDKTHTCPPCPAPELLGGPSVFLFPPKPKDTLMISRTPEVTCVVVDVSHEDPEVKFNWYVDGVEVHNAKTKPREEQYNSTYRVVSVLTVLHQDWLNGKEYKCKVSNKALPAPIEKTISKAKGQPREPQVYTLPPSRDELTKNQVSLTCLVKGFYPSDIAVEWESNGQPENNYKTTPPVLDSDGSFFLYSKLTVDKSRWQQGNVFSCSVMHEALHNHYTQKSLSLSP
Method: as §1

CRD3-4 [6] = target: T6, CRD3-4; experiment: as above
T6 construct: also called fragmented human CD137-Fc fusion protein CRD3-4
T6 sequence (chain, as listed by the source limits assumed): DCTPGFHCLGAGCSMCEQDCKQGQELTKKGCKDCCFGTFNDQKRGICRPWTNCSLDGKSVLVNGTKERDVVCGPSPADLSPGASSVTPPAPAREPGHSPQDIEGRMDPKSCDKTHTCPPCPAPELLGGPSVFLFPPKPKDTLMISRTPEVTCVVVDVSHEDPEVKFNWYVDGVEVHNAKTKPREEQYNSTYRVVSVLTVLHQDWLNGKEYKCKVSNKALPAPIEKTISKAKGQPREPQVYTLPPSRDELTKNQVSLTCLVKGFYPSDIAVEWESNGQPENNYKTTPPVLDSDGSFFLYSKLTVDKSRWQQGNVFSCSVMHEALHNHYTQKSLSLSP
Method: as §1

[7] = target: full-length human CD137-Fc fusion protein (human); experiment: as above
Sequence of full-length human CD137-Fc fusion protein (human) (chain, as listed by the source limits assumed): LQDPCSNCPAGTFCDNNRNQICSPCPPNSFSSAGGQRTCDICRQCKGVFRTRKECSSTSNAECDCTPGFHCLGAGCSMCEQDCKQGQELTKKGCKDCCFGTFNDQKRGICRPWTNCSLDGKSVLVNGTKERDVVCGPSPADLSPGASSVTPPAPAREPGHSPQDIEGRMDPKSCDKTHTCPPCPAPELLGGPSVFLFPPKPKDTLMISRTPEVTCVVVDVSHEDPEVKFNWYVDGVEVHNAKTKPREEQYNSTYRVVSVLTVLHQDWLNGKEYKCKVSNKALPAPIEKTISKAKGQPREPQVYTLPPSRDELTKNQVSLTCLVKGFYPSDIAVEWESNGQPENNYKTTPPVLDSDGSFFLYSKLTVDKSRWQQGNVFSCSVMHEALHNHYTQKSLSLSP
Method: as §1

CRD1 [8] = target: T1, CRD1; experiment: ELISA, coated CD137-Fc protein 2 µg/mL, antibody 10 or 5 µg/mL; absorbance 620 nm divided by that of the uncoated well
Method: as §1

CRD1-3 [9] = target: T2, CRD1-3; experiment: as above
Method: as §1

CRD1-2 [10] = target: T3, CRD1-2; experiment: as above
Method: as §1

CRD2-4 [11] = target: T4, CRD2-4; experiment: as above
Method: as §1

CRD2-3 [12] = target: T5, CRD2-3; experiment: as above
Method: as §1

CRD3-4 [13] = target: T6, CRD3-4; experiment: as above
Method: as §1

[14] = target: full-length human CD137-Fc fusion protein (human); experiment: as above
Method: as §1

CRD1 [15] = target: T1, CRD1; experiment: ELISA, coated CD137-Fc protein 2 µg/mL, antibody 10 or 5 µg/mL, absorbance 620 nm; Non (uncoated well) 0.202
Method: as §1

CRD1-3 [16] = target: T2, CRD1-3; experiment: as above
Method: as §1

CRD1-2 [17] = target: T3, CRD1-2; experiment: as above
Method: as §1

CRD2-4 [18] = target: T4, CRD2-4; experiment: as above
Method: as §1

CRD2-3 [19] = target: T5, CRD2-3; experiment: as above
Method: as §1

CRD3-4 [20] = target: T6, CRD3-4; experiment: as above
Method: as §1

T1 sequence (chain, as listed by the source limits assumed): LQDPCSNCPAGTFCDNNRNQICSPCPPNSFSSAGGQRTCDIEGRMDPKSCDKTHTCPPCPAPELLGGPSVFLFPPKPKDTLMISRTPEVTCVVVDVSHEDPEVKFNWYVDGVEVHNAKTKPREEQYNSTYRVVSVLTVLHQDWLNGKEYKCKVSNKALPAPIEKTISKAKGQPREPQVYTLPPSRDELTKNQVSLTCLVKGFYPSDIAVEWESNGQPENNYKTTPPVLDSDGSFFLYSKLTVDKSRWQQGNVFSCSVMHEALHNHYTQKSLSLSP

Binder | ELISA color development level (CRD1 [1]) | ELISA color development level (CRD1-3 [2]) | ELISA color development level (CRD1-2 [3]) | ELISA color development level (CRD2-4 [4]) | ELISA color development level (CRD2-3 [5]) | ELISA color development level (CRD3-4 [6]) | ELISA color development level [7] | Ratio with respect to Non-Coating (CRD1 [8]) | Ratio with respect to Non-Coating (CRD1-3 [9]) | Ratio with respect to Non-Coating (CRD1-2 [10]) | Ratio with respect to Non-Coating (CRD2-4 [11]) | Ratio with respect to Non-Coating (CRD2-3 [12]) | Ratio with respect to Non-Coating (CRD3-4 [13]) | Ratio with respect to Non-Coating [14] | ELISA color development level (CRD1 [15]) | ELISA color development level (CRD1-3 [16]) | ELISA color development level (CRD1-2 [17]) | ELISA color development level (CRD2-4 [18]) | ELISA color development level (CRD2-3 [19]) | ELISA color development level (CRD3-4 [20])
R3 (antibody, V domains shown, Naive library clone; Fab on phage in the phage ELISA) VH: EVQLVQSGAEVKKPGASVKVSCKASGYTFTSYYTHWVRQAPGQGLEWMGIINPSGGSTSYAQKFQGRVTMTRDTSTSTVYMELSSLRSEDTAVYYCARGAPEYSSSSDYWGQGTMVTVSS VL: QSALTQPASVSGSPGQSITISCTGTSSDVGGYNFVSWYQQHPGKAPKLMIYDVSKRPSGVSTRFSGSKSGNTASLTISGLQAEDEADYYCNSYTTSSTRWMFGGGTKVTVL | 0.103 | 1.12 | 1.74 | 0.0875 | 0.0995 | 0.077 | 2.06 | 1.7 | 18.4 | 28.5 | 1.4 | 1.6 | 1.3 | 33.7 | – | – | – | – | – | –
R2 (antibody, V domains shown, Naive library clone; Fab on phage in the phage ELISA) VH: EVQLQESGPGLVKPSETLSLTCTVSGGSISSSSYYWGWIRQPPGKGLEWIGSIHYTGSTYYNPSLKSRVTISVDTSKNQFSLKLSSVTAADTAVYYCARLNPSIAARPGAFDIWGQGTMVTVSS VL: QSVLTQPPSVSAAPGQKVTISCSGSSSNIANNFVSWFQQLPGTAPKLLIYDNNKRPSGIPDRFSGSKSGTSATLGITGLQTGDEADYYCGTWDRSLSAGVFGGGTKVTVL | – | – | – | – | – | – | – | 1.1 | 1.1 | 1 | 0.7 | 0.9 | 0.5 | – | 0.226 | 0.226 | 0.202 | 0.15 | 0.19 | 0.11
